Values joined by “and” are separate entries in the source; they are usually repeats but may differ in a detail not shown here. Equal values may be shown once. Read-outs that look alike come from different tables or passages of the source.
What was measured:
nontumor-bearing mice = assay type: in vivo; conditions: for median survival / MTD: nontumor-bearing mice; for survival rate at 90 days post-treatment: n=8; for MTD: 90 days, n=8/cohort
Method: MTD was defined as the highest dose given to the animals allowing 100% survival with no significant weight loss >15% throughout the experiment. Nontumor-bearing mice were randomly divided into seven cohorts used to evaluate MTD, six treatments and one control (n = 8/cohort); see Table 1. […] Control mice received DOTATATE (4 × 0.3 nmol) on four consecutive days. The animals were followed for 90 days. Serum was analyzed for the biomarker neutrophil gelatinase-associated lipocalin (NGAL) using ELISA (R&D Systems, 450 nm).

in vivo = test: in vivo; design: species or system mice; conditions: male, athymic nu/nu, mouse, iv, 0.3 nmol, total radioactivity
Method: Mice were euthanized at 10 and 60 min p.i. […] Blood, organs, and femur-containing femur marrow were collected and counted as described previously. The uptake was expressed as percentage of injected activity per gram of tissue (%IA/g).

[1] = test system: tumor and normal organs of mice; test: Radiation dosimetry (MIRD schema, Olinda/EXM spherical S-factors); assay type: in vivo; conditions: for mean radiation absorbed tumor dose: predicted from ^111In-DOTATATE tumor uptake, AR42J tumor-bearing mice; for mean radiation absorbed dose for femur: high-dose cohort
Method: Saturation of receptor-specific tumor uptake was investigated by determining the kinetics of the tumor uptake with increasing injected mass of peptide. The time-activity curves for the tumor and normal organs were fitted by single-exponential functions using Prism-5 (GraphPad). Goodness of fit was analyzed with the Pearson correlation coefficient R ^2 > 0.8. Both F test and the Aikake information criterion were used to decide on the complexity of the curves.
(§1) Dosimetry was performed according to the MIRD schema by using the spherical nodes S-factors from the Olinda/EXM software. S-factors were interpolated from the actual weight of the organs and tissue. All organs and tissue were assumed to be spherical with a density of […]. Mean radiation absorbed doses were obtained as a function-injected mass of peptide, assuming a homogeneous distribution in the tumor and organs. […] Owing to the short path length of α-particles, only the self-dose within each organ was included. The threshold for lethality was determined with renal absorbed dose and injected activity as indicators. Logistic regression analysis was used to determine the LD50 for presumed renal toxicity-related death.

kidney = test: Renal dose-effect relation (logistic regression, LD50); assay type: in vivo, mice; conditions: death before 90 days
Method: as §1
Data analyses, graphs, and calculations were performed in Prism-5. Mann-Whitney t test was used to calculate the significance. The results of statistical tests were considered significant when P was <0.05. Biodistribution data were expressed as mean ± standard deviation (SD) and tumor volume data as mean ± standard error (SEM). Binary logistic analysis (forced entry method) was performed with SPSS software (IBM SPSS statistics, version 20).

[2] = with L-lysine (35 mg), tumor-bearing mice, calculated
[3] = without L-lysine, tumor-bearing mice, calculated

## C[C@@H](O)[C@H](NC(=O)[C@@H]1CSSC[C@H](NC(=O)[C@@H](Cc2ccccc2)NC(=O)CN2CCN(CC(=O)O)CCN(CC(=O)O)CCN(CC(=O)O)CC2)C(=O)N[C@@H](Cc2ccc(O)cc2)C(=O)N[C@H](Cc2c[nH]c3ccccc23)C(=O)N[C@@H](CCCCN)C(=O)N[C@@H]([C@@H](C)O)C(=O)N1)C(=O)O [^213Bi-DOTATATE, metal not drawn]
nontumor-bearing mice; all treated cohorts except the high-dose without L-lysine
  median survival: > 90 days
nontumor-bearing mice; high-dose without L-lysine, 28.7 ± 1.2 MBq
  median survival: 24 days
nontumor-bearing mice; high-dose(+), 28.3 ± 0.8 MBq, with L-lysine
  survival rate at 90 days post-treatment: 75%
nontumor-bearing mice; high-dose(−), 28.7 ± 1.2 MBq, without L-lysine
  survival rate at 90 days post-treatment: 0%
nontumor-bearing mice; in absence of L-lysine
  MTD: < 13.0 ± 1.6 MBq
nontumor-bearing mice; low-dose(+), 13.2 ± 0.9 MBq, with L-lysine
  survival rate at 90 days post-treatment: 100%
nontumor-bearing mice; low-dose(−), 13.0 ± 1.6 MBq, without L-lysine
  survival rate at 90 days post-treatment: 87.5%
nontumor-bearing mice; medium-dose(+), 21.7 ± 1.9 MBq, with L-lysine
  survival rate at 90 days post-treatment: 100%
nontumor-bearing mice; medium-dose(−), 20.7 ± 0.8 MBq, without L-lysine
  survival rate at 90 days post-treatment: 62.5%
nontumor-bearing mice; with L-lysine renal protection (35 mg i.p.)
  MTD: 21.7 ± 1.9 MBq
In vivo; renal uptake
  tissue uptake at 10 min: 30.8 ± 5.8 %ID/g
  tissue uptake at 1 h: 18.4 ± 1.8 %ID/g
In vivo; stomach uptake
  tissue uptake at 1 h: 1.6 ± 0.5 %ID/g
[1]; 0.1 nmol peptide
  mean radiation absorbed tumor dose: approximately 0.5 Gy/MBq
[1]; 0.3 nmol peptide
  mean radiation absorbed tumor dose: approximately 0.5 Gy/MBq
[1]; with pre-treatment of L-lysine
  mean radiation absorbed dose for femur: 1.3 Gy
[1]; without L-lysine
  mean radiation absorbed dose for femur: 1.0 Gy
[1]; high-dose(+) cohort, 28.3 ± 0.8 MBq
  mean renal absorbed dose: 16 Gy
[1]; mice pre-treated with L-lysine
  time-integrated activity coefficient in the kidney: 6.0 ± 2.4 min/g
[1]; mice without pre-treatment of L-lysine
  time-integrated activity coefficient in the kidney: 12.0 ± 3.7 min/g
[1]; nontumor-bearing animals, with L-lysine
  renal absorbed dose: 0.50 Gy/MBq
[1]; nontumor-bearing animals, without L-lysine
  renal absorbed dose: 1.0 Gy/MBq
[1]; tumor-bearing animals, with L-lysine
  renal absorbed dose: 0.56 Gy/MBq
[1]; tumor-bearing animals, without L-lysine
  renal absorbed dose: 1.1 Gy/MBq
[1]; [2]
  Radiation absorbed dose per administered activity, Adrenals, Total α: 5.60E-02 Gy/MBq
  Radiation absorbed dose per administered activity, Adrenals, Total β: 2.00E-03 Gy/MBq
  Radiation absorbed dose per administered activity, Adrenals, ^209Pb β: 1.30E-04 Gy/MBq
  Radiation absorbed dose per administered activity, Adrenals, ^209Tl β + γ: 4.00E-05 Gy/MBq
  Radiation absorbed dose per administered activity, Adrenals, ^213Bi α: 8.00E-04 Gy/MBq
  Radiation absorbed dose per administered activity, Adrenals, ^213Bi β: 1.80E-03 Gy/MBq
  Radiation absorbed dose per administered activity, Adrenals, ^213Po α: 5.49E-02 Gy/MBq
  Radiation absorbed dose per administered activity, Blood, Total α: 1.09E-01 Gy/MBq
  Radiation absorbed dose per administered activity, Blood, Total β: 6.00E-03 Gy/MBq
  Radiation absorbed dose per administered activity, Blood, ^209Pb β: 2.00E-04 Gy/MBq
  Radiation absorbed dose per administered activity, Blood, ^209Tl β + γ: 1.40E-04 Gy/MBq
  Radiation absorbed dose per administered activity, Blood, ^213Bi α: 1.60E-03 Gy/MBq
  Radiation absorbed dose per administered activity, Blood, ^213Bi β: 5.20E-03 Gy/MBq
  Radiation absorbed dose per administered activity, Femur, Total α: 4.20E-02 Gy/MBq
  Radiation absorbed dose per administered activity, Femur, Total β: 2.00E-03 Gy/MBq
  Radiation absorbed dose per administered activity, Femur, ^209Pb β: 1.00E-04 Gy/MBq
  Radiation absorbed dose per administered activity, Femur, ^209Tl β + γ: 4.00E-05 Gy/MBq
  Radiation absorbed dose per administered activity, Femur, ^213Bi α: 6.00E-04 Gy/MBq
  Radiation absorbed dose per administered activity, Femur, ^213Bi β: 1.60E-03 Gy/MBq
  Radiation absorbed dose per administered activity, Femur, ^213Po α: 4.13E-02 Gy/MBq
  Radiation absorbed dose per administered activity, Kidney, Total α: 5.33E-01 Gy/MBq
  Radiation absorbed dose per administered activity, Kidney, Total β: 2.60E-02 Gy/MBq
  Radiation absorbed dose per administered activity, Kidney, ^209Pb β: 1.40E-03 Gy/MBq
  Radiation absorbed dose per administered activity, Kidney, ^209Tl β + γ: 6.30E-04 Gy/MBq
  Radiation absorbed dose per administered activity, Kidney, ^213Bi α: 8.00E-03 Gy/MBq
  Radiation absorbed dose per administered activity, Kidney, ^213Bi β: 2.37E-02 Gy/MBq
  Radiation absorbed dose per administered activity, Kidney, ^213Po α: 5.25E-01 Gy/MBq
  Radiation absorbed dose per administered activity, Pancreas, Total α: 1.36E-01 Gy/MBq
  Radiation absorbed dose per administered activity, Pancreas, Total β: 5.00E-03 Gy/MBq
  Radiation absorbed dose per administered activity, Pancreas, ^209Pb β: 8.90E-04 Gy/MBq
  Radiation absorbed dose per administered activity, Pancreas, ^209Tl β + γ: 1.00E-04 Gy/MBq
  Radiation absorbed dose per administered activity, Pancreas, ^213Bi α: 2.00E-03 Gy/MBq
  Radiation absorbed dose per administered activity, Pancreas, ^213Bi β: 4.50E-03 Gy/MBq
  Radiation absorbed dose per administered activity, Pancreas, ^213Po α: 1.34E-01 Gy/MBq
  Radiation absorbed dose per administered activity, Stomach, Total α: 6.10E-02 Gy/MBq
  Radiation absorbed dose per administered activity, Stomach, Total β: 3.00E-03 Gy/MBq
  Radiation absorbed dose per administered activity, Stomach, ^209Pb β: 2.20E-04 Gy/MBq
  Radiation absorbed dose per administered activity, Stomach, ^209Tl β + γ: 7.00E-05 Gy/MBq
  Radiation absorbed dose per administered activity, Stomach, ^213Bi α: 9.00E-04 Gy/MBq
  Radiation absorbed dose per administered activity, Stomach, ^213Bi β: 2.60E-03 Gy/MBq
  Radiation absorbed dose per administered activity, Stomach, ^213Po α: 6.00E-02 Gy/MBq
  Radiation absorbed dose per administered activity, Tumor, Total α: 6.14E-01 Gy/MBq
  Radiation absorbed dose per administered activity, Tumor, Total β: 4.40E-02 Gy/MBq
  Radiation absorbed dose per administered activity, Tumor, ^209Pb β: 1.41E-02 Gy/MBq
  Radiation absorbed dose per administered activity, Tumor, ^209Tl β + γ: 8.60E-04 Gy/MBq
  Radiation absorbed dose per administered activity, Tumor, ^213Bi α: 9.20E-03 Gy/MBq
  Radiation absorbed dose per administered activity, Tumor, ^213Bi β: 2.87E-02 Gy/MBq
  Radiation absorbed dose per administered activity, Tumor, ^213Po α: 6.05E-01 Gy/MBq
[1]; [3]
  Radiation absorbed dose per administered activity, Adrenals, Total α: 3.60E-02 Gy/MBq
  Radiation absorbed dose per administered activity, Adrenals, Total β: 2.00E-03 Gy/MBq
  Radiation absorbed dose per administered activity, Adrenals, ^209Pb β: 2.00E-04 Gy/MBq
  Radiation absorbed dose per administered activity, Adrenals, ^209Tl β + γ: 2.00E-05 Gy/MBq
  Radiation absorbed dose per administered activity, Adrenals, ^213Bi α: 5.00E-04 Gy/MBq
  Radiation absorbed dose per administered activity, Adrenals, ^213Bi β: 1.50E-03 Gy/MBq
  Radiation absorbed dose per administered activity, Adrenals, ^213Po α: 3.56E-02 Gy/MBq
  Radiation absorbed dose per administered activity, Blood, Total α: 9.00E-02 Gy/MBq
  Radiation absorbed dose per administered activity, Blood, Total β: 5.00E-03 Gy/MBq
  Radiation absorbed dose per administered activity, Blood, ^209Pb β: 1.60E-04 Gy/MBq
  Radiation absorbed dose per administered activity, Blood, ^209Tl β + γ: 1.20E-04 Gy/MBq
  Radiation absorbed dose per administered activity, Blood, ^213Bi α: 1.30E-03 Gy/MBq
  Radiation absorbed dose per administered activity, Blood, ^213Bi β: 4.30E-03 Gy/MBq
  Radiation absorbed dose per administered activity, Blood, ^213Po α: 8.80E-02 Gy/MBq
  Radiation absorbed dose per administered activity, Femur, Total α: 3.20E-02 Gy/MBq
  Radiation absorbed dose per administered activity, Femur, Total β: 1.00E-03 Gy/MBq
  Radiation absorbed dose per administered activity, Femur, ^209Pb β: 1.00E-04 Gy/MBq
  Radiation absorbed dose per administered activity, Femur, ^209Tl β + γ: 3.00E-05 Gy/MBq
  Radiation absorbed dose per administered activity, Femur, ^213Bi α: 5.00E-04 Gy/MBq
  Radiation absorbed dose per administered activity, Femur, ^213Bi β: 1.30E-03 Gy/MBq
  Radiation absorbed dose per administered activity, Femur, ^213Po α: 3.16E-02 Gy/MBq
  Radiation absorbed dose per administered activity, Kidney, Total α: 1.07E+00 Gy/MBq
  Radiation absorbed dose per administered activity, Kidney, Total β: 5.50E-02 Gy/MBq
  Radiation absorbed dose per administered activity, Kidney, ^209Pb β: 6.20E-03 Gy/MBq
  Radiation absorbed dose per administered activity, Kidney, ^209Tl β + γ: 1.30E-03 Gy/MBq
  Radiation absorbed dose per administered activity, Kidney, ^213Bi α: 1.61E-02 Gy/MBq
  Radiation absorbed dose per administered activity, Kidney, ^213Bi β: 4.71E-02 Gy/MBq
  Radiation absorbed dose per administered activity, Pancreas, Total α: 1.34E-01 Gy/MBq
  Radiation absorbed dose per administered activity, Pancreas, Total β: 5.00E-03 Gy/MBq
  Radiation absorbed dose per administered activity, Pancreas, ^209Pb β: 7.00E-04 Gy/MBq
  Radiation absorbed dose per administered activity, Pancreas, ^209Tl β + γ: 1.00E-04 Gy/MBq
  Radiation absorbed dose per administered activity, Pancreas, ^213Bi α: 2.00E-03 Gy/MBq
  Radiation absorbed dose per administered activity, Pancreas, ^213Bi β: 4.50E-03 Gy/MBq
  Radiation absorbed dose per administered activity, Pancreas, ^213Po α: 1.32E-01 Gy/MBq
  Radiation absorbed dose per administered activity, Stomach, Total α: 9.00E-02 Gy/MBq
  Radiation absorbed dose per administered activity, Stomach, Total β: 5.00E-03 Gy/MBq
  Radiation absorbed dose per administered activity, Stomach, ^209Pb β: 5.90E-04 Gy/MBq
  Radiation absorbed dose per administered activity, Stomach, ^209Tl β + γ: 1.10E-04 Gy/MBq
  Radiation absorbed dose per administered activity, Stomach, ^213Bi α: 1.30E-03 Gy/MBq
  Radiation absorbed dose per administered activity, Stomach, ^213Bi β: 3.90E-03 Gy/MBq
  Radiation absorbed dose per administered activity, Stomach, ^213Po α: 8.84E-02 Gy/MBq
  Radiation absorbed dose per administered activity, Tumor, Total α: 6.61E-01 Gy/MBq
  Radiation absorbed dose per administered activity, Tumor, Total β: 4.80E-02 Gy/MBq
  Radiation absorbed dose per administered activity, Tumor, ^209Pb β: 1.58E-02 Gy/MBq
  Radiation absorbed dose per administered activity, Tumor, ^209Tl β + γ: 9.60E-04 Gy/MBq
  Radiation absorbed dose per administered activity, Tumor, ^213Bi α: 9.90E-03 Gy/MBq
  Radiation absorbed dose per administered activity, Tumor, ^213Bi β: 3.14E-02 Gy/MBq
  Radiation absorbed dose per administered activity, Tumor, ^213Po α: 6.51E-01 Gy/MBq
kidney
  threshold LD5 kidney dose: 11 ± 4 Gy
kidney; mice with and without L-lysine
  LD50 mean renal radiation absorbed dose: 20 Gy and 20 ± 8 Gy
